# Experimental data reported in US20020090382A1 (UNIVERSITY OF PITTSBURGH OF THE COMMONWEALTH SYSTEM OF …, published 2002).
# T1: HveC(346t) (UniProt Q15223 31-346)
# T1 construct: Purified soluble receptor coated on ELISA plates; also called recombinant HveC; soluble gD receptor HveC
# T1 sequence: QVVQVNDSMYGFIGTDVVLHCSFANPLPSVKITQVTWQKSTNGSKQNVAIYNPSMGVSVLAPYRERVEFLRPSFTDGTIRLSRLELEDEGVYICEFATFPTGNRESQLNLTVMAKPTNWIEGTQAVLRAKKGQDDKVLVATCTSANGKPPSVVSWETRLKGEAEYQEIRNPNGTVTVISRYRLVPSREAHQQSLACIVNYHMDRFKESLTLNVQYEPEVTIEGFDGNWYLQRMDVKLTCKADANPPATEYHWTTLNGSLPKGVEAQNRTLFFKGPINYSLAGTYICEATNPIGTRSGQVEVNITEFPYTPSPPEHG
# T2: HveA(200t) (UniProt Q92956 39-200)
# T2 construct: Purified soluble receptor coated on ELISA plates; also called recombinant HveA; soluble gD receptor HveA
# T2 sequence: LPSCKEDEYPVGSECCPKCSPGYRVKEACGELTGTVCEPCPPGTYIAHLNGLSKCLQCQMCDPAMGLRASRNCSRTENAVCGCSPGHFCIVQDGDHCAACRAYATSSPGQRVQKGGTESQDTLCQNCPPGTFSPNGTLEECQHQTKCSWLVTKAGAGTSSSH
# Experiments:
# HveC(346t) = target: T1, HveC(346t); test: ELISA, peptide on coated HveC(346t), antiserum R11
# HveA(200t) = target: T2, HveA(200t); test: ELISA, peptide on coated HveA(200t), antiserum R11
binder,measurement,setting,value
ASLKMADPNRFRGKDLPVLDQ (synthetic peptide) [Polypeptide A1],binding result,HveC(346t),no binding (tested: between 1 µM and 1000 µM)
same,binding result,HveA(200t),no binding (tested: between 1 µM and 1000 µM)
